Assay results reported in US20070248613A1.

Biological target: IZN36 (HIV)

B1: D5 IgG (antibody, V domains shown)
VH: QVQLVQSGAEVRKPGASVKVSCKASGDTFSSYAISWVRQAPGQGLEWMGGIIPIFGTANYAQKFQGRVTITADESTSTAYMELSSLRSEDTAIYYCARDNPTLLGSDYWGKGTLVTVSS
VL: DIQMTQSPSTLSASIGDRVTITCRASEGIYHWLAWYQQKPGKAPKLLIYKASSLASGAPSRFSGSGSGTDFTLTISSLQPDDFATYYCQQYSNYPLTFGGGTKLEIK
  IC50 (read off the curve): 0.6 nM
